Test: soluble on expression in E. coli; label from the status in PepcDB or PDB records

Row | Sequence | soluble on expression in E. coli
1 | MAHHHHHHMTAYPFPIIDVSPLYQNTGAVMEVAKKIDEACRTWGFFYVVGHPIPRERFQELSRMARKFFSLPLEEKLQIDIKKSRHHRGYGEVNAEQLDPSAPNDHKETFDMGCHLPEDHPDVVAGKPLRGPNRHPTQLEGWRELMETHYREMQHFALVLLRALAVAIGIEEDFFVPRFVEPLSVFRMIHYPALPKTKEGRLVCGEHTDYGIITLLFQDTNGGLQVRDLSGEWIDAPPLEGSFVVNIGDMMNMWSNNRYRSTPHRVVNPGVDRISMPFFCEPNPNVVIKCLENCHSAENPAKYPPVKASDWLQKRFAQTYAYRKSML | soluble
2 | MGSDKIHHHHHHALSSDYFTTTPQVLEAVGGKVPVTINGKFPEKYFKKNAVVEVTPVLKWEGGQVKGQPAVFQGEKVEGNDQTISYKMGGNYTMKTTFDYVPEMAKSELYLEFNAKVGKKTIAIPAVKIADGVISTSELINNTLSSANPALGDDAFQRIIKEAHNANIMFLIQQANIRSSELKTAKEFNKEVANVNDAENKKISNIEISAYASPDGGVKLNTGLAENREGNTTKLINKDLKKAKIEVPVDAKYTAQDWEGFQELVSKSNIQDKELILRVLSMYQDPEQRETEIKNISSVYKTLADEILPQLRRSRLTLNYEIIGKSDEEIANLAATDPKQLNVEEILYAATLTNDPAKKADIYTKASQQFPNDYRAFNNLGKLAYQAGDLDKAQSYVKKAESIKSAPEVNMNLGLIALAKGDKAAAESYLGKAAGAKELNETLGNLYVAQGQYERAVNAFGDTKTNSAALAQILAKDYNKAKNTLAGIATPDAYTDYLMAVLGARTNNTSMLTSSLKSAVAKNPALAKKAATDLEFAKYYTNADFMSIVK | not soluble
3 | MRLLTIGSGLRGAKVAEILHKKGVKVNRVPLFKCFAVLNNEEHLRSISIGDDRKYYVHGLKGDVSGFVNQITSLYEIFEGSLVLTSLEDDFGYITSLELCQRLRKVTEDAVISLAIVPQLDTSSIGEIKKRIRSLRDVSDILILFEGEVGVERKILEVMNLVALAGEIDLKKRVAGEVVVDTSDVFNALKSDGFAIAGLAERKIPFNFKNLIFRRNSELKAVRTRRMIELTEEALQNVSINGDVENAKSALLLFAGKPDELTMEGLFSSIAMIENINRDIVVRYGDYPIPGSRKVSAVLIFSGIRKFRFA | soluble
4 | MAHHHHHHMERGKNPMEAELNRAPQEVSLSAFSLLFSEIVQYCLWKSKRGYRIEDSLHEMGLRVGYKLNEYLPYKNKTKRCVNIISILTFLSKHLWKYLFQHSSDLLKSQDSIYEYMLCDKNILLNRFISVPKDYGNINCASFAAGIVEGMLCSAEFQAEVTAHTVYEDEKNFNTTIFIKFYPEVVNRERGEK | not soluble
5 | GMDNVAEYRKLIKQVLTEYDNLSRQSPETNYETCLVFDENHDNYLWLAVDWQGSKRIKYTYVHIRIKNEKIYIEEDYTEEGIATELMRLGVTNNDIVLAFHPPDVRKFTDFATA | soluble
6 | NLYHTPIFSVDREYEWLEKRHDKMLFAFDIPIHLTRRVLLVAGEAHTGGTMEAFTRYLRSIGVGEIKTCVFYKQSICTQHIDFWGMEGENTILMPWQNAQSIRDSLSKAQANQLKKIQRQRDC | not soluble
7 | MNKAKPKVVWASVYEGSAYIAPKDSYVDNMIKMAGGINACASIDSNEGRVSIEQLHEVAKDADIFVYSSSSDYAPNLDSIKSSAPVLADLDVVKNGNLWVFAPDYYQSVDKTDELIVDLVEMFHPGTTGEKIKHYINYDKLEHHHHHH | soluble
8 | MTVISSHWWRCISLNSKSNRCSSSSGNHLMMGGKKTCVLMRATFMVIATDYEFERRWCRRTGTIAGCHLISKQAEVGEMMCMIEL | not soluble
9 | MHYQPKQDLLQNRIILVTGASDGIGREAALTYARYGATVILLGRNEEKLRRVAQHIADEQHVQPQWFTLDLLTCTAEECRQVADRIAAHYPRLDGVLHNAGLLGEIGPMSEQDPQIWQDVMQVNVNATFMLTQALLPLLLKSDAGSLVFTSSSVGRQGRANWGAYATSKFATEGMMQVLADEYQNRSLRVNCINPGGTRTSMRASAFPTEDPQKLKTPADIMPLYLWLMGDDSRRKTGMTFDAQPGRKPGIAQ | not soluble
10 | MGHHHHHHHHHHSSGHIEGRHMDINGVLLLDKPQGMSSNDALQKVKRIYNANRAGHTGALDPLATGMLPICLGEATKFSQYLLDSDKRYRVIARLGQRTDTSDADGQIVEERPVTFSAEQLAAALDTFRGDIEQIPSMYSALKYQGKKLYEYARQGIEVPREARPITVYELLFIRHEGNELELEIHCSKGTYIRTIIDDLGEKLGCGAHVIYLRRLAVSKYPVERMVTLEHLRELVEQAEQQDIPAAELLDPLLMPMDSPASDYPVVNLPLTSSVYFKNGNPVRTSGAPLEGLVRVTEGENGKFIGMGEIDDEGRVAPRRLVVEYPA | soluble
11 | GAASEAEYGKVSKAWTLHADGSQEYRSSMELTLFTHTAMNSTYGESFIVYNPDFQTLKIHSSYTRQKDGTIVKTPDNAFVEVLPRFAADAPAYNQLKEMVVVHTGLELGATIYLDYSIITKPGYYPALDINERLQETSPVKECKVSISVPEGTPLACGLYGSPVKAVEESHDGIKEVHWTLRNIPASSREAFQPKNREASPHLVASTYPSGKAALATLDKRLKESQGYESKTFAQFLTDKSGNEQEKVNIIRDHILNNLSTCPIPMAMTGYTVRDIDTVLRSAYGTPLEIAQLLNVMLNAAGIPSEVLAVYPGHLDTDACGLAAIQTLAVKATVDGKDQYLSASPLTNRGGLDKVVSLSGTSIEIETTPIQIKESRSVAISADQAKDGFAICVLPAISAGIDSWGMSALNSKRSNLFELPSLIREEVTYTVTPAEGMKLQTSTQEQVISKPFGKVTRTITPRGNTIEVVRTIELNKQQFTPAEYSDVRSLIHEWTNPDNRVLLFSL | soluble
12 | MCDISTEDQLLEFARKAAESGDQTQTFEFKKHIGFLIRHLNVFPQPYNTLETSRNTIFLFAISSLDLLGELDNLLTPERRQAYIDWIYGLQFTNGNVCGFRGSHSCENSGYDEANLAQTYSALLSLAILGDDLKKVDRKAILKTVKTAQRDNGCFWSQGVGSESDMRFVFCAVAISHILDGDKEQTIDWTKLAGFLRQSLNIDGGIGQAPGDESHGGSTFCAIASLALSNRLWTEEVLTRRDIDRLIRWAIQKQDIGFHGRAHKPDDSCYAFWIGATLKILNAYHLVSKQHLREFLMICQHPHIGGFCKYPEPGGYSDILHTYFSIAALSLLGEPAVNPVHPSLNVSMRVAERIARLQFD | not soluble
13 | MTVYHFVGIKGTGMSSLAQILHDMKHTVQGSDYEKRFFTQTALEKRNISILPFDKSNVKEGQVIIAGNAFPDTHEEIVAAKELNIPVHRYHHFLGDLMNQYTSVAVTGAHGKTSTTGLLAHVMQGAHPTSYLIGDGTGHGVENSKYFVFEACEYRRHFLSYNPDYAIMTNIDFDHPDYFTDINDVFSAFQEMALQVKKGIIACGDDEELQKIQAKVPVIFYGFGEDNDFQARNIQKRTDGTIFDVFVRNTYYDTFKITGYGNHSVLNALAVIALCHYENVDVEAVKHQLTTFEGVKRRFNEKPMGEQVIIDDYAHHPTEINATIEAARQKHPEREIVAVFQPHTFSRTEKFLDEFAESLSKADQVYLCDIFGSARENKGELTIEDLQKRIDGAELITDTTTDVLKKHKNGVLIFMGAGDIQKFEAAYVKEVQVAEK | not soluble
14 | GSSHHHHHHSSGLVPRGSHMGSIIDAAAAAGPVVLMETAFRKAVESRQIPGAVIMARDASGNLNYTRCFGARTVRRDENNQLPPLQVDTPCRLASATKLLTTIMVLQCMERGLVDLDETVDRLLPDLSAMPVLEGFDDAGNARLRERRGKITLRHLLTHTSGLSYVFLHPLLREYMAQGYLQSAEKFGIQSRLAPPAVNDPGAEWIYGTNLDWAGKLVERATGLDLEQYLQENICAPLGITDMTFKLQQRPDMLARRADQTHRNSADGRLRYDDSVYFRADGEECFGGQGVFSSPGSYMKVLHSLLKRDGLLLQPQTVDLMFQPALEPRLEEQMNQHMDASPHINYGGPMPMVLRRSFGLGGIIALEDLDGENWRRKGSLTFGGGPNIVWQIDPKAGLCTLAFFQLEPWNDPVCRDLTRTFEHAIYAQYQQG | soluble
15 | MSLIAPVLKGKGVLITRAKEQASSLSRLIEEAGGVPIEVPLLSFIKTMDVYEEVGASIQSYEWIVFTSANAVRFFFNTWPRQELKKLPSIAAVGSSTQRELSRYGISVDLMPNEYVAESLVETMVKRLKPCRVLFPKGNLARPTVKVGLETNGFIVDEMTVYETKRPLEAKVMLCEAFQKHRIEIITFTSPSAVDHFVTLLDREFILHEHLLYAYIGPIAAARAKQRGLPVHIVAKTYTGEGLVNAICDFVKEDGEGHHHHHH | soluble
16 | MSLMTEMQQRAQLHRQIWKIADEVRGAVDGWDFKQYVLGTLFYRFISENFTDYMQAGDSSIDYAAMPDSIITPEIKDDAVKVKGYFIYPGQLFCNIAAEAHQNEELNTKLKEIFTAIESSASGYPSEQDIKGLFDDFDTTSSRLGSTVADKNKRLAAVLKGVAELDFGNFENHHIDLFGDAYEYLISNYAANAGKSGGEFFTPQSVSKLIARLAVHGQEKVNKIYDPACGSGSLLLQAKKQFDEHIIEEGFFGQEINHTTYNLARMNMFLHNVNYNQFHIELGDTLTNPKLKDSKPFDAIVSNPPYSINWIGSDDPTLINDDRFAPAGVLAPKSKADFAFILHALNYLSGRGRAAIVSFPGIFYRGGAEQKIRQYLVEGNYVETVIALAPNLFYGTGIAVNILVLSKHKDNTDIQFIDASGFFKKETNNNVLIEEHIAEIVKLFADKADVPHIAQNAAQQTVKDNGYNLAVSSYVEAEDTREIIDIKQLNAEIGETVAKIERLRREIDEVIAEIEAEGHHHHHH | soluble
17 | MGHHHHHHSHMFGCLVAGRLVQTAAQQVAEDKFVFDLPDYESINHVVVLMLGTIPFPEGMGGSVYFSYPDSMDASMALLGFVTNGKPSAIFKISGLKSGEGSQHPFGAMNIVRTPSVAQIGISVELLDSMAQQTPVGNAAVSSVDSFTQFTQKMLDNFYNFASSFAVSQAQMTPSPSEMFIPANVVLKWYENFQRRLAQNPLFWKT | not soluble
18 | MFAERLKELRKREAGLTQERLAMQLGMAKTTLASYEQGKRQPDLETLSKIADRFSVTTDYLLGKNGTPKWATKKDTIDLKDFLEANEGSMTYGGEDLTEEEKQQVRVAMATIFWKRHKHD | not soluble
19 | MGSDKIHHHHHHMRLPPLKALPVFEAAARLNSFSAASEELAITQSAVSHQIKQLETYLGERLFWRSGRRVTLTDEGRQYFDAIGSALLQIERASEQLLGHEESRLRLSVFSSFAVRWLVPRLPDLQRLHPQIDLALEMSSENPVLSDRVADCFITIHRDSRAYSYDLLYEERLFPVCSQDYWQRMRRELGRDVEPERRDEQPVSPGEMAGFPLLSTHSIFDRPAGDWEAWYSAAGELMPTGTRVQHFSHMLLALEAARFHQGIALTNDYMLSTRKDSEDFVRLPTHSVVTGDKFYFAWKTSRRRERGIQTLRRWLVDEAIRGGLRGE | not soluble
20 | MHHHHHHMNPERSERIEIPVLPLRDVVVYPHMVIPLFVGREKSIRCLEAAMDHDKKIMLVAQKEASTDEPGVNDLFTVGTVASILQMLKLPDGTVKVLVEGLQRARISALSDNGEHFSAKAEYLE | soluble
21 | MSLNPEEEVITLMKKAGIDLVATLPCDRIKNLLPLVSKNFPEIKMTREENGVGICAGFYLAGGKPLMLIQSTGLGNMINALESLNVTCKIPLPVLTSWRGVYKEAIEAQVPLGVHLPAILEGAGLAYTIIDEVEKLHQIENVISDAFENSRPHIALISPKVWEASECCAWQGAGMPEKPEVMERTCSIFLKKEVLKPVMLRNDAICAIASELDDEVTVTNLGVPCKELYACKDRDLNFYMFGSMGLVSSIGMGIALRSEKTVVAFDGDGSLLMNPNALLEIAKESPKNLIIIALDNGAYGSTGSQETCALRYIDLEIFANACGITNTAKVNAREELIKIFKKFRDMKELALIHVILKPGNTNAPNIPLSPEGAAKRFKEALEAKKNEGHHHHHH | soluble

Source: the DeepSol protein solubility set
